Source: FireProtDB (doi:10.1021/bi00458a027)
Values joined by “and” are separate entries in the source; they are usually repeats but may differ in a detail not shown here. Identical values can stand only once.

Settings: Escherichia coli (strain K12), pH 7.8, Urea, CD, Potassium phosphate 10 mM, whole UniProt chain shown

B1: Tryptophan synthase alpha chain wild type, P0A877 (protein)
chain: MERYESLFAQLKERKEGAFVPFVTLGDPGIEQSLKIIDTLIEAGADALELGIPFSDPLADGPTIQNATLRAFAAGVTPAQCFEMLALIRQKHPTIPIGLLMYANLVFNKGIDEFYAQCEKVGVDSVLVADVPVEESAPFRQAALRHNVAPIFICPPNADDDLLRQIASYGRGYTYLLSRAGVTGAENRAALPLNHLVAKLKEYNAAPPLQGFGISAPDQVKAAIDAGAAGAISGSAIVKIIEQHINEPEKMLAALKVFVQPMKAATRS
**Q.** For B1, which denaturant m value (4 °C) is on record?
**A.** Its denaturant m value is 3.1 kcal/mol/M and 1.9 kcal/mol/M.

**Q.** What about the “denaturant midpoint (higher = more stable)” value (4 °C) of the same protein?
**A.** The value was 1.63 M and 3.17 M.

**Q.** What about the unfolding free energy (4 °C) of the same protein?
**A.** The unfolding free energy was 5 kcal/mol and 6 kcal/mol.

**Q.** And the denaturant m value (25 °C)?
**A.** The denaturant m value was 1.2 kcal/mol/M.

**Q.** What about the “denaturant midpoint (higher = more stable)” value (25 °C) of the same protein?
**A.** Its value is 4.18 M.

**Q.** And the unfolding free energy (25 °C)?
**A.** Its unfolding free energy is 5 kcal/mol.
